Measurements taken from patent publication US20120135923A1 (IPSEN PHARMA S A S, published 2012).
Bridge positions count the residues as written; N and C are the ends. Square brackets hold non-standard residues; d marks the D form. 2Nal = N[C@@H](Cc1ccc2ccccc2c1)C(=O)O; d2Nal = N[C@H](Cc1ccc2ccccc2c1)C(=O)O; Bta = N[C@@H](Cc1csc2ccccc12)C(=O)O; hPhe = N[C@@H](CCc1ccccc1)C(=O)O; Cha = N[C@@H](CC1CCCCC1)C(=O)O; dCha = N[C@H](CC1CCCCC1)C(=O)O; Nle = CCCC[C@H](N)C(=O)O; Ava = NCCCCC(=O)O; GABA = NCCCC(=O)O

B1: Ac-Nle-c(Cys-D-Cha-His-D-Phe-Arg-Trp-Cys)-NH2 (peptide)
peptide: Ac-[Nle]C[dCha]H[dF]RWC-NH2
modifications: disulfide 2-8
SMILES: CCCC[C@H](NC(C)=O)C(=O)N[C@H]1CSSC[C@@H](C(N)=O)NC(=O)[C@H](Cc2c[nH]c3ccccc23)NC(=O)[C@H](CCCNC(=N)N)NC(=O)[C@@H](Cc2ccccc2)NC(=O)[C@H](Cc2c[nH]cn2)NC(=O)[C@@H](CC2CCCCC2)NC1=O
B2: Ac-Nle-c(Cys-D-Ala-His-D-Phe-Arg-Trp-Gly-Cys)-NH2 (peptide)
peptide: Ac-[Nle]C[dA]H[dF]RWGC-NH2
modifications: disulfide 2-9
SMILES: CCCC[C@H](NC(C)=O)C(=O)N[C@H]1CSSC[C@@H](C(N)=O)NC(=O)CNC(=O)[C@H](Cc2c[nH]c3ccccc23)NC(=O)[C@H](CCCNC(=N)N)NC(=O)[C@@H](Cc2ccccc2)NC(=O)[C@H](Cc2c[nH]cn2)NC(=O)[C@@H](C)NC1=O
B3: Ac-Cha-c(Asp-His-D-Phe-Arg-Trp-Gaba-Lys)-NH2 (peptide)
peptide: Ac-[Cha]DH[dF]RW[GABA]K-NH2
modifications: lactam 2-8
SMILES: CC(=O)N[C@@H](CC1CCCCC1)C(=O)N[C@H]1CC(=O)NCCCC[C@@H](C(N)=O)NC(=O)CCCNC(=O)[C@H](Cc2c[nH]c3ccccc23)NC(=O)[C@H](CCCNC(=N)N)NC(=O)[C@@H](Cc2ccccc2)NC(=O)[C@H](Cc2c[nH]cn2)NC1=O

Target: T1, hMC4-R (human, UniProt P32245 1-332)
T1 construct: whole, on cells; Assayed as membranes of CHO-K1 cells expressing the receptor; also called hMC-R receptor subtype 4; melanocortin-4 (MC4-R)
Assay: competition with [125I]-NDP-α-MSH, CHO-K1 membranes
Method: (§1) Cellular membranes used for the in vitro receptor binding assays were obtained from transgenic CHO-K1 cells stably expressing hMC-R receptor subtypes 1, 3, 4 or 5. […] The pellets were resuspended in the same buffer and centrifuged at 50,000 g for 10 minutes at approximately 4° C. The washed pellets containing the cellular membranes were stored at approximately −80° C.
(§2) Competitive inhibition of [¹²⁵I](Tyr²)-(Nle⁴-D-Phe⁷)α-MSH ([¹²⁵I]-NDP-α-MSH, Amersham Biosciences®) binding was carried out in polypropylene 96 well plates. Cell membranes (1-10 μg protein/well) prepared as described above were incubated in 50 mM Tris-HCl at pH 7.4 containing 0.2% bovine serum albumin (BSA), 5 mM MgCl₂, 1 mM CaCl₂ and 0.1 mg/mL bacitracin, with increasing concentrations of the test compound and 0.1-0.3 nM […] for approximately 90-120 minutes at approximately 37° C. Bound [¹²⁵I]-NDP-α-MSH ligand was separated from free [¹²⁵I]-NDP-α-MSH by filtration through GF/C glass fiber filter plates (Unifilter®; Packard) presoaked with 0.1% (w/v) polyethylenimine (PEI), using a Packard Filtermate® harvester. Filters were washed three times with 50 mM Tris-HCl at pH 7.4 at a temperature of approximately 0-4° C. and then assayed for radioactivity using a Packard Topcount® scintillation counter. Binding data were analyzed by computer-assisted non-linear regression analysis (XL fit; IDBS).

T1 sequence (P32245 whole entry): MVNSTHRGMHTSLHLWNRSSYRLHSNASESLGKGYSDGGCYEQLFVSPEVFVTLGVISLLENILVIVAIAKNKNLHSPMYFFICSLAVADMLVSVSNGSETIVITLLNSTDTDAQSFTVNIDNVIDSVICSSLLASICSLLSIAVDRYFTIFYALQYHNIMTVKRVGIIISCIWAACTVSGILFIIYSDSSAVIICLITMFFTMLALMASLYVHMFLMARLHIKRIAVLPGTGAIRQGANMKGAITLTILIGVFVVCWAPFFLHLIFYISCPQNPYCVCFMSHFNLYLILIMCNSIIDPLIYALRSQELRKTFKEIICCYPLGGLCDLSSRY

Ki	Binder
96.4 nM	Ac-CEH[dF]R[2Nal]AC-NH2 (disulfide 1-8) [Ac-c(Cys-Glu-His-D-Phe-Arg-2-Nal-Ala-Cys)-NH2]
9 nM	Ac-[Nle]C[dI]H[dF]RWC-NH2 (disulfide 2-8) [Ac-Nle-c(Cys-D-Ile-His-D-Phe-Arg-Trp-Cys)-NH2]
3.37 nM	Ac-[hPhe]DH[dF]RW[GABA]K-NH2 (lactam 2-8) [Ac-hPhe-c(Asp-His-D-Phe-Arg-Trp-Gaba-Lys)-NH2]
11.1 nM	Ac-[Nle]DH[dF]RW[Ava]K-NH2 (lactam 2-8) [Ac-Nle-c(Asp-His-D-Phe-Arg-Trp-Apn-Lys)-NH2]
1.41 nM	B1
3.01 nM	B2
21.3 nM	Ac-[Nle]D[dA]H[dF]R[Bta]AK-NH2 (lactam 2-9) [Ac-Nle-c(Asp-D-Ala-His-D-Phe-Arg-Bal-Ala-Lys)-NH2]
1.49 nM	B3

Target: T2, hMC1-R (human, UniProt Q01726 1-317)
T2 construct: whole, on cells; Assayed as membranes of CHO-K1 cells expressing the receptor; also called hMC-R receptor subtype 1; melanocyte-specific receptor (MC1-R)
Assay: as above
Method: as §1, §2

T2 sequence (Q01726 whole entry): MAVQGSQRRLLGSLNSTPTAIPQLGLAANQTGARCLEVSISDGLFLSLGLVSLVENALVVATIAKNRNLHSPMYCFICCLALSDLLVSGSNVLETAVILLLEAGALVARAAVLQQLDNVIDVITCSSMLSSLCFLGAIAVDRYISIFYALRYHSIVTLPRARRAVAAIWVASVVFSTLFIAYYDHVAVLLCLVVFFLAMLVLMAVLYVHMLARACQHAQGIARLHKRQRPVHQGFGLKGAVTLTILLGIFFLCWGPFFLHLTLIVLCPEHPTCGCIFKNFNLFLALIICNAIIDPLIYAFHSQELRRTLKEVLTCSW

Ki	Binder
1.17 nM	Ac-[Nle]DH[d2Nal]RWAK-NH2 (lactam 2-8) [Ac-Nle-c(Asp-His-D-2-Nal-Arg-Trp-Ala-Lys)-NH2]
262 nM	Ac-CEH[dF]R[2Nal]AC-NH2 (disulfide 1-8) [Ac-c(Cys-Glu-His-D-Phe-Arg-2-Nal-Ala-Cys)-NH2]
4.28 nM	Ac-[Nle]C[dI]H[dF]RWC-NH2 (disulfide 2-8) [Ac-Nle-c(Cys-D-Ile-His-D-Phe-Arg-Trp-Cys)-NH2]
13 nM	Ac-[Nle]C[dV]H[dF]RWC-NH2 (disulfide 2-8) [Ac-Nle-c(Cys-D-Val-His-D-Phe-Arg-Trp-Cys)-NH2]
0.999 nM	Ac-[Nle]DH[dF]RW[Ava]K-NH2 (lactam 2-8) [Ac-Nle-c(Asp-His-D-Phe-Arg-Trp-Apn-Lys)-NH2]
0.79 nM	Ac-[dR]DH[dF]RWAK-NH2 (lactam 2-8) [Ac-D-Arg-c(Asp-His-D-Phe-Arg-Trp-Ala-Lys)-NH2]
0.353 nM	B1
4.89 nM	Ac-[Nle]D[dA]H[dF]R[Bta]AK-NH2 (lactam 2-9) [Ac-Nle-c(Asp-D-Ala-His-D-Phe-Arg-Bal-Ala-Lys)-NH2]
0.106 nM	B3

Target: T3, hMC5-R (human, UniProt P33032 1-325)
T3 construct: whole, on cells; Assayed as membranes of CHO-K1 cells expressing the receptor; also called hMC-R receptor subtype 5; melanocortin-5 receptor (MC5-R)
Assay: as above
Method: as §1, §2

T3 sequence (P33032 whole entry): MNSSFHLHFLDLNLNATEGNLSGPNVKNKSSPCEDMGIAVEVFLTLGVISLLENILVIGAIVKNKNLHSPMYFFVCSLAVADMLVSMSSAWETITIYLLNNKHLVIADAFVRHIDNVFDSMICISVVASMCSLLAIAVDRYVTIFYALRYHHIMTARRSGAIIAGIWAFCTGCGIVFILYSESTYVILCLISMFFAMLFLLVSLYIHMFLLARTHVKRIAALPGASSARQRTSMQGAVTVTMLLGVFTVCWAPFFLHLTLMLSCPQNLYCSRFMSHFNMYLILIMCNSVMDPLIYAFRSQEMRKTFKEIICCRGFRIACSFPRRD

Ki	Binder
1460 nM	Ac-CEH[dF]R[2Nal]AC-NH2 (disulfide 1-8) [Ac-c(Cys-Glu-His-D-Phe-Arg-2-Nal-Ala-Cys)-NH2]
12.5 nM	Ac-[Nle]C[dI]H[dF]RWC-NH2 (disulfide 2-8) [Ac-Nle-c(Cys-D-Ile-His-D-Phe-Arg-Trp-Cys)-NH2]
40 nM	Ac-[Nle]C[dV]H[dF]RWC-NH2 (disulfide 2-8) [Ac-Nle-c(Cys-D-Val-His-D-Phe-Arg-Trp-Cys)-NH2]
203 nM	Ac-[hPhe]DH[dF]RW[GABA]K-NH2 (lactam 2-8) [Ac-hPhe-c(Asp-His-D-Phe-Arg-Trp-Gaba-Lys)-NH2]
431 nM	Ac-[Nle]DH[dF]RW[Ava]K-NH2 (lactam 2-8) [Ac-Nle-c(Asp-His-D-Phe-Arg-Trp-Apn-Lys)-NH2]
493 nM	Ac-[dR]DH[dF]RWAK-NH2 (lactam 2-8) [Ac-D-Arg-c(Asp-His-D-Phe-Arg-Trp-Ala-Lys)-NH2]
339 nM	B2
11.1 nM	Ac-[Nle]D[dA]H[dF]R[Bta]AK-NH2 (lactam 2-9) [Ac-Nle-c(Asp-D-Ala-His-D-Phe-Arg-Bal-Ala-Lys)-NH2]
110 nM	B3

Target: T4, hMC3-R (human, UniProt P41968 1-323)
T4 construct: whole, on cells; Assayed as membranes of CHO-K1 cells expressing the receptor; also called hMC-R receptor subtype 3; melacortin-3 (MC3-R)
Assay: as above
Method: as §1, §2

T4 sequence (P41968 whole entry): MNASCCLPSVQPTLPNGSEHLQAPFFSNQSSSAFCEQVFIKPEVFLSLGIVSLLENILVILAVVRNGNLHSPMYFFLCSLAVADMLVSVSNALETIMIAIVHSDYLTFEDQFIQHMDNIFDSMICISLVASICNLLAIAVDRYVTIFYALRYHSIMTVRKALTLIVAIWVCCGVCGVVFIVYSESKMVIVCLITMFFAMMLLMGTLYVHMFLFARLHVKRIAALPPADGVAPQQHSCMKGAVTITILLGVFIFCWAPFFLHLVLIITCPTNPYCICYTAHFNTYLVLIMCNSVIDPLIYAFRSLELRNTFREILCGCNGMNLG

Ki	Binder
104 nM	Ac-[Nle]C[dV]H[dF]RWC-NH2 (disulfide 2-8) [Ac-Nle-c(Cys-D-Val-His-D-Phe-Arg-Trp-Cys)-NH2]
25.2 nM	Ac-[hPhe]DH[dF]RW[GABA]K-NH2 (lactam 2-8) [Ac-hPhe-c(Asp-His-D-Phe-Arg-Trp-Gaba-Lys)-NH2]
300 nM	Ac-[Nle]DH[dF]RW[Ava]K-NH2 (lactam 2-8) [Ac-Nle-c(Asp-His-D-Phe-Arg-Trp-Apn-Lys)-NH2]
45.5 nM	Ac-[dR]DH[dF]RWAK-NH2 (lactam 2-8) [Ac-D-Arg-c(Asp-His-D-Phe-Arg-Trp-Ala-Lys)-NH2]
2.08 nM	B1
149 nM	B2
11.8 nM	B3
